Measured values: publication PMC7647061, “Expression, purification and characterization of α-synuclein fibrillar specific scFv from inclusion bodies” (PLoS ONE, 2020)

Target: full-length α-syn140 fibrils (Homo sapiens (assumed), UniProt P37840)
Assay: far-Western, overlay or dot blot; dot blot: antigen (monomeric or fibrillar) spotted on nitrocellulose in 5 μl, air-dried, blocked in 5% skimmed milk in PBST; scFv-F 5 μg/mL overnight at 4°C; detected by anti-His and HRP secondary antibody
Conditions: both partners purified

binding result: binds
B1: single-chain variable fragment (scFv-F) antibody (scFv, V domains shown)
VH: DVQLVESGGGLVQPGGSRKLSCAASGFTFSSFGMHWVRQAPEKGLEWVAYISSGSSTIYYADTVKGRFTISRDNPKNTLFLQMTSLRSEDTAMYYCARGNNPGTGYYYAMDYWGQGTSVTVSS
VL: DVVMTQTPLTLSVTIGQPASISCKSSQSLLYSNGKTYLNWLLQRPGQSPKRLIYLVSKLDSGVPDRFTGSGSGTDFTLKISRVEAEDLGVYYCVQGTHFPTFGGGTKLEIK
notes: VL of mouse monoclonal antibody Syn-F2; (Gly4Ser)3 linker, written out from the printed formula; VH of mouse monoclonal antibody Syn-F2; Order VL-(Gly4Ser)3-VH-6xHis; Final construct is in pET28a; the vector may add residues at the N-terminus (the model's residue numbers Tyr215 and Thr269 hint at a chain longer than VL-linker-VH alone); not shown: His6, C-terminal, kept
